Target: eukaryotic elongation factor-1 A1 (eEF1A1), purified (UniProt P68104)
UniProt P68104, sequence (P68104 whole entry): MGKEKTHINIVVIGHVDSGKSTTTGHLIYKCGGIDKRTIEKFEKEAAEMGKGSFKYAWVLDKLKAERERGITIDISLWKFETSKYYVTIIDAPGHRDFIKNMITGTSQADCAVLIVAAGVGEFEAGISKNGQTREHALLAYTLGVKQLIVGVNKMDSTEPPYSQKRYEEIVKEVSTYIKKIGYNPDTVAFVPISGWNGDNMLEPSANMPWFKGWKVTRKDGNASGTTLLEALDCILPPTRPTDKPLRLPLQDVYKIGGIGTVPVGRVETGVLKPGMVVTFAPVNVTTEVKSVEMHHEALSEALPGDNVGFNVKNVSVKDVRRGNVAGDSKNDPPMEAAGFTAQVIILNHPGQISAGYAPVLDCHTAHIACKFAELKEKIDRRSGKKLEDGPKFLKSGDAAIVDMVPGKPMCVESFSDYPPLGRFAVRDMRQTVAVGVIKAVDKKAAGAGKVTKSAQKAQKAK

Substance	repression of translation of Luc-BAT in an IVT assay
recombinant full-length (FL) hnRNP E1 expressed as a GST-fusion product (from UniProt Q15365 1-356) (natural protein)	> 80%
hnRNP E1 KH1 domain expressed as GST-fusion product (domain or fragment)	70%

From paper PMC3061437
